We go through one protein from FireProtDB (doi:10.1006/jmbi.1993.1336).

The conditions of this data set: Aspergillus oryzae (strain ATCC 42149 / RIB 40), GdnHCl, Fluorescence, reversible: yes, whole UniProt chain shown.
The mark [1] stands for this setting: pH 5, 25 °C, Sodium acetate 0.1 M.

B1: Guanyl-specific ribonuclease T1 wild type, P00651 (protein)
chain: MMYSKLLTLTTLLLPTALALPSLVERACDYTCGSNCYSSSDVSTAQAAGYQLHEDGETVGSNSYPHKYNNYEGFDFSVSSPYYEWPILSSGDVYSGGSPGADRVVFNENNQLAGVITHTGASGNNFVECT
B1: the denaturant m value came out at 2.75 kcal/mol/M under setting [1]; 2.63 kcal/mol/M (pH 8, 10 °C, Tris 0.1 M); 2.46 kcal/mol/M (pH 8, 25 °C, Tris 0.1 M). The “denaturant midpoint (higher = more stable)” value was 3.64 M under setting [1]; 3.21 M (pH 8, 10 °C, Tris 0.1 M); 2.4 M (pH 8, 25 °C, Tris 0.1 M). For the same protein, the unfolding free energy is, setting by setting: under setting [1], 10 kcal/mol; (pH 8, 10 °C, Tris 0.1 M) 8.44 kcal/mol; (pH 8, 25 °C, Tris 0.1 M) 5.91 kcal/mol.
